Results as given in paper PMC3552686, “Biosynthesis of allene oxides in Physcomitrella patens” (BMC Plant Biology, 2012).

What was measured:
Experiment in all cases: purified protein
Format in all cases: biochemical, Physcomitrium patens
purified protein [1] = substrate: CC/C=C\C/C=C\C=C\[C@H](CCCCCCCC(=O)O)OO; details: pH 6.5, room temperature, 0.1 nM enzyme, kcat corrected to 100% heme
purified protein [2] = substrate: CC/C=C\C[C@@H](/C=C/C=C\CCCCCCCC(=O)O)OO; details: pH 6.5, room temperature, 0.1 nM enzyme, kcat corrected to 100% heme
purified protein [3] = substrate: CCCCC/C=C\C=C\[C@H](C/C=C\CCCCC(=O)O)OO; details: pH 6.5, room temperature, 0.05 nM enzyme, kcat corrected to 100% heme
purified protein [4] = substrate: CCCCC/C=C\C=C\[C@H](CCCCCCCC(=O)O)OO; details: pH 6.5, room temperature, 0.1 nM enzyme, kcat corrected to 100% heme
purified protein [5] = substrate: CCCCC/C=C\C[C@@H](/C=C/C=C\C/C=C\CCCC(=O)O)OO; details: pH 6.5, room temperature, 0.1 nM enzyme, kcat corrected to 100% heme
purified protein [6] = substrate: CCCCC[C@@H](/C=C/C=C\C/C=C\CCCCC(=O)O)OO; details: pH 6.5, room temperature, 0.05 nM enzyme, kcat corrected to 100% heme
purified protein [7] = substrate: CCCCC[C@@H](/C=C/C=C\CCCCCCCC(=O)O)OO; details: pH 6.5, room temperature, 0.1 nM enzyme, kcat corrected to 100% heme

B1: PpAOS1 (Physcomitrium patens) (protein)
chain: MAVPSSKLPLKAIPGDYGVPYFGAIKDRLDYFWLQGEEQFYRSRMAKYNSTVFRVNMPPGPPISEHPQVICLLDQKSFPILFDVSKVEKKDVFTGTYMPSVSFTSGYRVCSYLDPSEERHTKLKQWCFEVIAMNGRNFLPEFHKSIEESMVLWETSLAKGEKTSVSDEVKQFAFNFLMRAVCHHDPAAPGEYSLGRNGGPYATAWANPQLAPIAGQTGLPHVVEELVLHTVPLPSALVKKNYDALYNFIKNYATEALDRAEAMGIERNDATANLLFFLCFNAYGGFSIFFPLITILISSCGPELMHDLHDEVTKAVAATDGKVTLQSIENMPLVKSVVYEAFRFKPPVPYQYGKAKFDFTIENHENSFEVKKGEMLYGYQPIVMHDPKVFSDPDQFLPRRFMGPDGEKLIKYIFWSNGYETDEPTTANKQCAGKDLVVTMARAFVAEMFLRYKEYTLTMEGAGNATKVFFSDLKK
notes: cDNA from protonema library; N-terminal His6 tag kept (pQE30), E. coli SG13009[pRep4]
- Km (purified protein [1]): 39 ± 14 µM
- Vmax (purified protein [1]): 0.2 µM/min
- kcat (purified protein [1]): 112 s⁻¹
- kcat/Km (purified protein [1]): 2.87e+06 M⁻¹ s⁻¹
- Km (purified protein [2]): 95 ± 27 µM
- Vmax (purified protein [2]): 0.9 µM/min
- kcat (purified protein [2]): 501 s⁻¹
- kcat/Km (purified protein [2]): 5.27e+06 M⁻¹ s⁻¹
- Km (purified protein [3]): 46 ± 17 µM
- Vmax (purified protein [3]): 2.35 µM/min
- kcat (purified protein [3]): 2610 s⁻¹
- kcat/Km (purified protein [3]): 5.71e+07 M⁻¹ s⁻¹
- Km (purified protein [4]): 121 ± 61 µM
- Vmax (purified protein [4]): 0.98 µM/min
- kcat (purified protein [4]): 545 s⁻¹
- kcat/Km (purified protein [4]): 4.5e+06 M⁻¹ s⁻¹
- Km (purified protein [5]): 7 ± 2 µM
- Vmax (purified protein [5]): 0.23 µM/min
- kcat (purified protein [5]): 128 s⁻¹
- kcat/Km (purified protein [5]): 1.96e+07 M⁻¹ s⁻¹
- Km (purified protein [6]): 107 ± 57 µM
- Vmax (purified protein [6]): 2.77 µM/min
- kcat (purified protein [6]): 3080 s⁻¹
- kcat/Km (purified protein [6]): 2.88e+07 M⁻¹ s⁻¹
- Km (purified protein [7]): 83 ± 42 µM
- Vmax (purified protein [7]): 0.96 µM/min
- kcat (purified protein [7]): 531 s⁻¹
- kcat/Km (purified protein [7]): 6.4e+06 M⁻¹ s⁻¹
